Data taken from patent US20260071182A1 (GAIA BIOMEDICINE, published 2026).
Blank lines part the entries; values can stand above or below the binder they belong to.

What was measured:
Experiment in all cases: BLI (Octet RED96), target on sensor, monobody in five 2-fold dilutions
[1] = target: T1, Human NKp30/NCR3/CD337 Protein, Fc Tag (NC3-H5259) (human, UniProt O14931 19-135)
T1 construct: Bought from ACROBiosystems, catalog NC3-H5259; not shown: Fc tag of the purchased protein
T1 sequence (looked up): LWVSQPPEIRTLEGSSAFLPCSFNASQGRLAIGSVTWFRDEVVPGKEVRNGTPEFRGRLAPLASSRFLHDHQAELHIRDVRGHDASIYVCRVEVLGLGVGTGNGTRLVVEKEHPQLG
Experimental: (§1) The binding abilities and specificities were examined by using an Octet® RED96 (ForteBio) with bio-layer interferometry. Measurement was performed with the following program: Dip for 50 seconds, Load for x seconds (until a signal of 1.0 nm (NKp46, 2B4) or 0.8 nm (Nkp30) was reached), Baseline for 60 seconds, Association for 600 seconds, and Dissociation for 600 seconds. At that time, the monobody concentrations were equally set to 40 nM. The acquired data were analyzed with ForteBio Data Analysis 10.0. Only samples for which binding ability and specificity were found were subjected to measurement of dissociation constants under different conditions. The measurement conditions are shown in a table given below. Dip, Baseline, Association, and Dissociation were performed for the same times as in examining binding ability and specificity. The monobodies were serially diluted from the highest concentration by a factor of 2 to prepare five concentrations for use in measurement.
(§2) The binding abilities and specificities of all the clones expressed and purified in Example 3 were examined, and the values of dissociation constants were measured. FIGS. 5 to 7 show the measurement results. In the top graphs in each of FIGS. 5 to 7, upper lines show results of measurement of the binding abilities of the monobodies with binding of a target to the tip of the sensor, and lower lines show results of examination on whether a monobody was bound only to the sensor without binding of a target to the sensor. Mb in the graphs is an abbreviation for monobody concentration. For any of the clones, the monobody was bound to the sensor when a target was fixed on the sensor, and no binding was found when a target was not fixed on the sensor. The bottom graphs in each of FIGS. 5 to 7 show results of measurement of dissociation constants for five concentrations.

[2] = target: T2, Biotinylated Human NKp46/NCR/CD335 Protein, Fc, Avitag (NC1-H82F9) (human, UniProt O76036 22-255, biotinylated (Avitag))
T2 construct: Bought from ACROBiosystems, catalog NC1-H82F9; not shown: Fc and Avitag of the purchased protein
T2 sequence (O76036 22-255): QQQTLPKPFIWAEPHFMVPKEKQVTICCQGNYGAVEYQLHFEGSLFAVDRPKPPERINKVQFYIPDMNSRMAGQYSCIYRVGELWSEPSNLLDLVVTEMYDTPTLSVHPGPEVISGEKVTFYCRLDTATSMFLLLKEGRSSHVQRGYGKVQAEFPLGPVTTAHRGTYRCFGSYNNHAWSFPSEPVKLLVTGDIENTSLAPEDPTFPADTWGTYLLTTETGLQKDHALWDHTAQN
Experimental: as §1, §2

[3] = target: T3, Biotinylated Human 2B4/CD244/SLAMF4 Protein, Fc, Avitag (2B4-H82F0) (human, UniProt Q9BZW8-2 22-221, biotinylated (Avitag))
T3 construct: Bought from ACROBiosystems, catalog 2B4-H82F0; not shown: Fc and Avitag of the purchased protein
T3 sequence (looked up): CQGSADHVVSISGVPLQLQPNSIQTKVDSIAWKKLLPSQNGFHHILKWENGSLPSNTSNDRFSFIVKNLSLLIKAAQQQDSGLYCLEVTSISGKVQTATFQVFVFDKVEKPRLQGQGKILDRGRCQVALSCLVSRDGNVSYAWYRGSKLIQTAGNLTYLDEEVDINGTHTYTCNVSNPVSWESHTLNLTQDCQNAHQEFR
Experimental: as §1, §2

[4] = target: T4, Biotinylated Human 2B4/CD244/SLAMF4 Protein, Fc, Avitag (2B4-H82F0) (human) (UniProt Q9BZW8)
T4 sequence (biotinylated (Avitag), looked up): T3 sequence (looked up)

B1: Mb-NKp30-BC-6 (designed binder)
chain: LEVVEASPTSIQISWDATDRNYDITYGMQVRYYRITYGETGGNSPVQEFTVPGSKSTATISGLKPGVDYTITVYAVTYWWDGYSYSEEAWYYPISINYRTEIDKPSQ
notes: Monobody on human fibronectin type III domain scaffold, BC-FG library; also called NKp30 BC-FG No. 6; not shown: N-terminal residues of the expression construct (X7n7; the library has MPNR), linker, Sortase A recognition site and His tag
Kd [1]: 270 pM
koff [1]: 0.00024 s⁻¹
kon [1]: 900000 M⁻¹ s⁻¹

B3: Mb-2B4-CD-1 (designed binder)
chain: LEVVEASPTSIQISWDAPAVTVRYYGIYYGETGTSPWVYNGYVQEFTVPGSKSTATISGLKPGVDYTITVYAVTDQYKSWNLEEFHPISINYRTEIDKPSQ
notes: Monobody on human fibronectin type III domain scaffold, CD-FG library; also called 2B4 CD-FG No. 1; not shown: Sortase A recognition site, His tag and any linker (X8n8) at the C terminus; MPNR in the library
Kd [3]: 2800 pM
koff [3]: 0.0002 s⁻¹
kon [3]: 71000 M⁻¹ s⁻¹

B4: Mb-NKp30-BC-2 (designed binder)
chain: LEVVEASPTSIQISWDALWHYYGDQYWVRYYRITYGETGGNSPVQEFTVPGSKSTATISGLKPGVDYTITVYAVTWMYVPEYYFNPWPISINYRTEIDKPSQ
notes: Monobody on human fibronectin type III domain scaffold, BC-FG library; also called NKp30 BC-FG No. 2; not shown: N-terminal residues of the expression construct (X7n7; the library has MPNR), linker, Sortase A recognition site and His tag
Kd [1]: 38 pM
koff [1]: 2.7e-05 s⁻¹
kon [1]: 720000 M⁻¹ s⁻¹

B8: Mb-2B4-CD-3 (designed binder)
chain: LEVVEASPTSIQISWDAPAVTVRYYEILYGETGTPPWIHKGWVQYFTVPGSKSTATISGLKPGVDYTITVYAVTVTPYGRKWVGMNGWPISINYRTEIDKPSQ
notes: Monobody on human fibronectin type III domain scaffold, CD-FG library; also called 2B4 CD-FG No. 3; not shown: Sortase A recognition site, His tag and any linker (X8n8) at the C terminus; MPNR in the library
Kd [3]: 1500 pM
koff [3]: 0.00035 s⁻¹
kon [3]: 230000 M⁻¹ s⁻¹

B10: Mb-2B4-BC-2 (designed binder, part only; not given: N-terminal start, linker, sortase site, tag, not shown: small tags and cut ends)
chain, part: LEVVEASPTSIQISWDAQAYWFEYTWWVRYYRITYGETGGNSPVQEFTVPGSKSTATISGLKPGVDYTITVYAVTLEWVYDDQWTSGPISINYRTEIDKPSQ
Kd [4]: 1000 pM
koff [4]: 9.3e-05 s⁻¹
kon [4]: 92000 M⁻¹ s⁻¹

The next lines start with the values.

Kd [2]: 140 pM
koff [2]: 7.2e-05 s⁻¹
kon [2]: 530000 M⁻¹ s⁻¹
B2: Mb-NKp46-CD-1 (designed binder)
chain: LEVVEASPTSIQISWDAPAVTVRYYDIYYGETGPGYYMWQRGVINVQAFTVPGSKSTATISGLKPGVDYTITVYAVTGQERAYGHPEHFPISINYRTEIDKPSQ
notes: Monobody on human fibronectin type III domain scaffold, CD-FG library; also called NKp46 CD-FG No. 1; not shown: N-terminal residues of the expression construct (X7n7; the library has MPNR), linker, Sortase A recognition site and His tag

Kd [2]: 1200 pM
koff [2]: 0.00047 s⁻¹
kon [2]: 380000 M⁻¹ s⁻¹
B5: Mb-NKp46-BC-2 (designed binder)
chain: LEVVEASPTSIQISWDAWTWLGYEYYWVRYYRITYGETGGNSPVQEFTVPGSKSTATISGLKPGVDYTITVYAVTWDSKPGAIGIPISINYRTEIDKPSQ
notes: Monobody on human fibronectin type III domain scaffold, BC-FG library; also called NKp46 BC-FG No. 2; not shown: N-terminal residues of the expression construct (X7n7; the library has MPNR), linker, Sortase A recognition site and His tag

Kd [2]: < 10 pM
koff [2]: < 1e-06 s⁻¹
kon [2]: 100000 M⁻¹ s⁻¹
B6: Mb-NKp46-BC-3 (designed binder)
chain: LEVVEASPTSIQISWDATYWDWGFRVRYYRITYGETGGNSPVQEFTVPGSKSTATISGLKPGVDYTITVYAVTWSWARRTHISWFPISINYRTEIDKPSQ
notes: Monobody on human fibronectin type III domain scaffold, BC-FG library; also called NKp46 BC-FG No. 3; not shown: N-terminal residues of the expression construct (X7n7; the library has MPNR), linker, Sortase A recognition site and His tag

Kd [2]: 980 pM
koff [2]: 7e-05 s⁻¹
kon [2]: 72000 M⁻¹ s⁻¹
B7: Mb-NKp46-CD-3 (designed binder)
chain: LEVVEASPTSIQISWDAPAVTVRYYVISYGETGRYKYHRRINVQGFTVPGSKSTATISGLKPGVDYTITVYAVTGTQWYVFNEAGDVAGYPISINYRTEIDKPSQ
notes: Monobody on human fibronectin type III domain scaffold, CD-FG library; also called NKp46 CD-FG No. 3; not shown: N-terminal residues of the expression construct (X7n7; the library has MPNR), linker, Sortase A recognition site and His tag

Kd [1]: 350 pM
koff [1]: 0.00029 s⁻¹
kon [1]: 810000 M⁻¹ s⁻¹
B9: Mb-NKp30-CD-9 (designed binder)
chain: LEVVEASPTSIQISWDAPAVTVRYYVITYGETGWSWESYWHGTYVQQFTVPGSKSTATISGLKPGVDYTITVYAVTTFMKDIPSYYPISINYRTEIDKPSQ
notes: Monobody on human fibronectin type III domain scaffold, CD-FG library; also called NKp30 CD-FG No. 9; not shown: N-terminal residues of the expression construct (X7n7; the library has MPNR), linker, Sortase A recognition site and His tag
